Data reported in article PMC10919400.

How the values were obtained:
[1] = biological target: human plasminogen; assay: whole-bacteria Plg binding; bound Plg converted to Pln with tPA, Pln activity measured with chromogenic substrate (VALY); details: +Plg/+tPA: S. suis is incubated with Plg and tPA; parent: est. 100; read off a plot
[2] = biological target: human plasmin (UniProt P00747); assay: whole-bacteria Pln binding; bound Pln activity measured with chromogenic substrate (VALY); details: +Pln: S. suis is incubated with Pln; parent: est. 100; read off a plot
Sequence of UniProt P00747 (P00747 581-810, chain 1 of 2): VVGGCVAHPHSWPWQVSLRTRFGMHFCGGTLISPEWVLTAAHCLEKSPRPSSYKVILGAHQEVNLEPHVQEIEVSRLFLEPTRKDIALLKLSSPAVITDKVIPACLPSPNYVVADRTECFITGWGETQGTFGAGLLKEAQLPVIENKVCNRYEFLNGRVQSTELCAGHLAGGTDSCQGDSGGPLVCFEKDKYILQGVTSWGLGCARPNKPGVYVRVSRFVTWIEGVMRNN
Sequence of UniProt P00747 (P00747 581-810, chain 2 of 2): as the sequence (P00747 581-810, chain 1 of 2) above

Substance	percent of parent (% of wild-type) [1]	percent of parent (% of wild-type) [2]
Streptococcus suis P1/7 enolase, wild type, on intact bacteria (from UniProt A4W2T1) K252A; E253G; K255A	55	63
Streptococcus suis P1/7 enolase, wild type, on intact bacteria (from UniProt A4W2T1) K252A; K261A	57	50
Streptococcus suis P1/7 enolase, wild type, on intact bacteria (from UniProt A4W2T1) K261A	58	56
Streptococcus suis P1/7 enolase, wild type, on intact bacteria (from UniProt A4W2T1) K434A; K435A	55	46
